Experimental data as given in US12383631B2, “Immune antigen specific IL-18 immunocytokines and uses thereof” (Bright Peak Therapeutics AG, priority 2022, dated 2025).
Numbering of substitutions follows the chain as printed. Names and notes keep the numbering of the source. One block for each molecule: values may come before it.

Assays:
[1] = target: T1, human IL-18BP (Homo sapiens, UniProt O95998); assay: IL-18BP binding AlphaLISA assay (Example 4 / 17B); settings: IL-18 binding protein AlphaLISA
T1 sequence (O95998 31-194): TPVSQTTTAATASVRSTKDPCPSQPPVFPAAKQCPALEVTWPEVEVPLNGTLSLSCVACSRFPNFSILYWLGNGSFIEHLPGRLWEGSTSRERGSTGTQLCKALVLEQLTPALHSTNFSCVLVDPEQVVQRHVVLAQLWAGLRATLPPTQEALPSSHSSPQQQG
Description: A human IL-18BP AlphaLISA Assay Kit is used to determine the binding affinity of each immunocytokine and IL-18 variant for IL-18BP, which detected the presence of free form IL-18BP.
Sixteen three-fold serial dilutions of IL-18 analytes are prepared in aMEM medium supplemented with 20% FCS, Glutamax, and 25 μM β-mercaptoethanol in the presence of 5 ng/mL of His-tagged human IL-18BP. Final IL-18 analytes concentration range from 2778 nM to 0.2 pM.
After 1 hr incubation at room temperature, free IL-18BP levels are measured using a […]. In a 384 well OPTIplate, 5 μL of 5× Anti-IL-18BP acceptor beads are added to 7.5 μL of an IL-18/IL-18BP mix. After 30 min incubation at room temperature with shaking, 5 μL of biotinylated Anti-IL-18BP antibodies are added to each well. The plate is incubated further for 1 hr at room temperature. Under subdued light, 12.5 μL of 2× streptavidin (SA) donor beads are pipetted into each well, and the wells are incubated with shaking for an additional 30 min at room temperature. The AlphaLisa signal is then measured on an Enspire plate reader with 680 and 615 nm as excitation and emission wavelengths, respectively. The dissociation constant (KD) is calculated based on a variable slope, four parameter analysis using GraphPad PRISM software.
17B—IL-18 BP AlphaLISA assay—An IL-18 binding protein AlphaLISA experiment substantially as described in Example 4 was performed on IL-18 polypeptide which can be incorporated into immunocytokine compositions as provided herein to assess ability to bind to IL-18BP.

[2] = target: T2, human IL-18 binding protein isoform a (IL-18BPa) (Homo sapiens, UniProt O95998); assay: IL-18 Binding Protein inhibition cellular assay in NK-92 cells (Example 4 / 17C); format: cell-based; settings: inhibition by IL-18BP of IFNγ stimulation in NK92 cells
T2 sequence (O95998 31-194): T1 sequence (O95998 31-194)
Description: The NK cell line NK-92 derived from a patient with lymphoma (ATCC® CRL-2407™) is cultured in aMEM medium supplemented with 20% FCS-Glutamax, 25 μM β-mercaptoethanol, and 100 IU/mL of recombinant human IL-2.
On the day of experiment, cells are harvested and washed with aMEM medium without IL-2 and containing 1 ng/mL of recombinant human IL-12. After counting, the cells are seeded at 100,000 cells/well in a 384 well titer plate and incubated at 37° C./5% CO2. Sixteen 2-fold serial dilutions of Fc-fused human IL-18 binding protein isoform a (IL-18BPa) are prepared in aMEM medium. 1 ng/mL of IL-12 containing 2 nM of each modified IL-18 polypeptide variant is added to the NK-92 cells. The final IL-18 analyte concentration is 1 nM, and the final IL-18BPa concentration ranged from 566 nM to 17 pM.
After incubating the cells for 16-20 hr at 37° C./5% CO2, 5 μL of the supernatant is carefully transferred to a 384 microwell OptiPlate. IFNγ levels are measured using a human IFNγ AlphaLISA Assay Kit. Briefly, 10 μL of 2.5× AlphaLISA anti-IFNγ acceptor beads and biotinylated antibody anti-IFNγ mix are added to 5 μL of NK-92 supernatants. The mixtures are incubated for 1 hr at room temperature with shaking. Under subdued light, 2.5 μL of 2×SA donor beads are pipetted in each well and incubated for 30 min at room temperature with shaking. AlphaLISA signals are then measured on an EnSpire™ plate reader using 680 nm and 615 nm as excitation and emission wavelengths, respectively. Half maximal inhibitory concentrations (IC50) are calculated based on a variable slope and four parameter analysis using GraphPad PRISM software.
17C—IFNγ Stimulation and IL-18BP Inhibition Assay—The experiments described in Example 4 for determination of IFNg stimulation in NK92 cells (and inhibition by IL-18 BP) were performed substantially as described on modified IL-18 polypeptides in order to assess their activities and their suitability for incorporation into immunocytokine compositions.

B3: C151: IL-18 polypeptide: V11I, D35A, C38A, K53A, C76A, C127A (protein)
chain: YFGKLESKLSIIRNLNDQVLFIDQGNRPLFEDMTASDARDNAPRTIFIISMYADSQPRGMAVTISVKCEKISTLSAENKIISFKEMNPPDNIKDTKSDIIFFQRSVPGHDNKMQFESSSYEGYFLAAEKERDLFKLILKKEDELGDRSIMFTVQNED
- IC50 [2]: 3.62 nM

B4: C143: IL-18 polypeptide: V11I, C38A, K53A, C76A, C127A (protein)
chain: B3 chain with A35D
- IC50 [2]: 1.62 nM

B6: C150: IL-18 polypeptide: V11I, T34A, C38A, K53A, C76A, C127A (protein)
chain: B3 chain with T34A, A35D
- IC50 [2]: 21.3 nM

B7: C145: IL-18 polypeptide: V11I, C38A, K53A, S55A, C76A, C127A (protein)
chain: B3 chain with A35D, S55A
- IC50 [2]: 10.2 nM

B12: C148: IL-18 polypeptide: F2A, V11I, C38A, K53A, C76A, C127A (protein)
chain: B3 chain with F2A, A35D
- IC50 [2]: 5.05 nM

B14: C156: IL-18 polypeptide: V11I, C38A, N41A, K53A, C76A, C127A (protein)
chain: B3 chain with A35D, N41A
- IC50 [2]: 0.681 nM

B15: C153: IL-18 polypeptide: V11I, D37A, C38A, K53A, C76A, C127A (protein)
chain: B3 chain with A35D, D37A
- IC50 [2]: 2.22 nM

B16: C155: IL-18 polypeptide: V11I, C38A, D40A, K53A, C76A, C127A (protein)
chain: B3 chain with A35D, D40A
- IC50 [2]: 3.23 nM

B17: C144: IL-18 polypeptide: V11I, C38A, K53A, T63A, C76A, C127A (protein)
chain: B3 chain with A35D, T63A
- IC50 [2]: 7.52 nM

B19: C149: IL-18 polypeptide: V11I, E31A, C38A, K53A, C76A, C127A (protein)
chain: B3 chain with E31A, A35D
- IC50 [2]: 1.17 nM

B20: C154: IL-18 polypeptide: V11I, E31A, D37A, C38A, K53A, C76A, C127A (protein)
chain: B3 chain with E31A, A35D, D37A
- IC50 [2]: 3.71 nM

B21: C152: IL-18 polypeptide: V11I, S36A, C38A, K53A, C76A, C127A (protein)
chain: B3 chain with A35D, S36A
- IC50 [2]: 7.85 nM

B24: C147: IL-18 polypeptide: V11I, C38A, K53A, D54A, C76A, C127A (protein)
chain: B3 chain with A35D, D54A
- IC50 [2]: 47.6 nM

Continued, values first:

- Kd [1]: > 2800 nM
B1: C177: IL-18 polypeptide: E6K, V11I, C38A, I49R, K53A, T63A, C76A, C127A (protein)
chain: B3 chain with E6K, A35D, I49R, T63A

- IC50 [2]: 733 nM
B2: SEQ ID NO: 68: IL-18 polypeptide: V11I, C38A, M51G, K53A, C76A, C127A (protein)
chain: B3 chain with A35D, M51G

- IC50 [2]: 0.176 nM
B5: C168: IL-18 polypeptide: V11I, C38A, C76A, S105K, C127A (protein)
chain: B3 chain with A35D, A53K, S105K

- IC50 [2]: 0.809 nM
B8: C167: IL-18 polypeptide: V11I, C38A, C76A, S105I, C127A (protein)
chain: B3 chain with A35D, A53K, S105I

- IC50 [2]: 0.823 nM
B9: C163: IL-18 polypeptide: V11I, C38A, C76A, Q103K, C127A (protein)
chain: B3 chain with A35D, A53K, Q103K

- IC50 [2]: 0.456 nM
B10: C164: IL-18 polypeptide: V11I, C38A, S55H, C76A, C127A (protein)
chain: B3 chain with A35D, A53K, S55H

- IC50 [2]: 3.98 nM
B11: C158: IL-18 polypeptide: V11I, C38A, K53A, C76A, G108A, C127A (protein)
chain: B3 chain with A35D, G108A

- IC50 [2]: 6.08 nM
B13: C157: IL-18 polypeptide: V11I, C38A, K53A, C76A, C127A, D132A (protein)
chain: B3 chain with A35D, D132A

- IC50 [2]: 0.885 nM
B18: C165: IL-18 polypeptide: V11I, C38A, S55R, C76A, C127A (protein)
chain: B3 chain with A35D, A53K, S55R

- Kd [1]: > 2800 nM
B22: C178: IL-18 polypeptide: E6K, V11I, C38A, K53A, T63A, C76A, Q103R, C127A (protein)
chain: B3 chain with E6K, A35D, T63A, Q103R

- IC50 [2]: 1.07 nM
B23: C161: IL-18 polypeptide: K8R, V11I, C38A, C76A, Q103E, C127A (protein)
chain: B3 chain with K8R, A35D, A53K, Q103E

- IC50 [2]: 3.18 nM
B25: C160: IL-18 polypeptide: V11I, C38A, K53A, C76A, D110A, C127A (protein)
chain: B3 chain with A35D, D110A

- IC50 [2]: 0.44 nM
B26: C166: IL-18 polypeptide: V11I, C38A, S55T, C76A, C127A (protein)
chain: B3 chain with A35D, A53K, S55T

- IC50 [2]: 7.29 nM
B27: C162: IL-18 polypeptide: K8E, V11I, C38A, C76A, Q103R, C127A (protein)
chain: B3 chain with K8E, A35D, A53K, Q103R

- IC50 [2]: 1.81 nM
B28: C159: IL-18 polypeptide: V11I, C38A, K53A, C76A, H109A, C127A (protein)
chain: B3 chain with A35D, H109A
